# Results published in patent publication US20140057284A1, “PHOTOLUMINESCENT MOLECULAR COMPLEX AND METHOD FOR DETERMINING OF THE CONCENTRATION OF SAID MOLECULAR COMPLEX” (priority 2011, published 2014).
# Tests used:
# Experiment in all cases: biochemical
# Conditions in all cases: read-out: Percentages of residual activities of the kinase reaction
# [1] = molecular target: ABL (Homo sapiens, UniProt P00519)
# Description: (§1) Selectivity testing (Table 2) was performed on the commercial basis at the Division of Signal Transduction Therapy, University of Dundee. ATP concentrations that were used in testing were close to the Km value of the kinase.
# [2] = molecular target: BTK (Homo sapiens, UniProt Q06187)
# Description: as §1
# [3] = molecular target: CLK2 (Homo sapiens, UniProt P49760)
# Description: as §1
# [4] = molecular target: DAPK1 (Homo sapiens, UniProt P53355)
# Description: as §1
# [5] = molecular target: DYRK2 (Homo sapiens, UniProt Q92630)
# Description: as §1
# [6] = molecular target: DYRK3 (Homo sapiens, UniProt O43781)
# Description: as §1
# [7] = molecular target: ERK8 (Homo sapiens, UniProt Q8TD08)
# Description: as §1
# [8] = molecular target: GSK3b (Homo sapiens, UniProt P49841)
# Description: as §1
# [9] = molecular target: HIPK3 (Homo sapiens, UniProt Q9H422)
# Description: as §1
# [10] = molecular target: IGF-1R (Homo sapiens, UniProt P08069)
# Description: as §1
# [11] = molecular target: IKKb (Homo sapiens, UniProt O14920)
# Description: as §1
# [12] = molecular target: IR (Homo sapiens, UniProt P06213)
# Description: as §1
# [13] = molecular target: IRAK4 (Homo sapiens, UniProt Q9NWZ3)
# Description: as §1
# [14] = molecular target: JNK1 (Homo sapiens, UniProt P45983)
# Description: as §1
# [15] = molecular target: JNK2 (Homo sapiens, UniProt P45984)
# Description: as §1
# [16] = molecular target: JNK3 (Homo sapiens, UniProt P53779)
# Description: as §1
# [17] = molecular target: LKB1 (Homo sapiens, UniProt Q15831)
# Description: as §1
# [18] = molecular target: MAPKAP-K2 (Homo sapiens, UniProt P49137)
# Description: as §1
# [19] = molecular target: MAPKAP-K3 (Homo sapiens, UniProt Q16644)
# Description: as §1
# [20] = molecular target: MARK2 (Homo sapiens, UniProt Q7KZI7)
# Description: as §1
# [21] = molecular target: MARK4 (Homo sapiens, UniProt Q96L34)
# Description: as §1
# [22] = molecular target: MKK1 (Homo sapiens, UniProt Q02750)
# Description: as §1
# [23] = molecular target: MLK3 (Homo sapiens, UniProt Q16584)
# Description: as §1
# [24] = molecular target: MNK2 (Homo sapiens, UniProt Q9HBH9)
# Description: as §1
# [25] = molecular target: NEK2a (Homo sapiens, UniProt P51955)
# Description: as §1
# [26] = molecular target: PIM3 (Homo sapiens, UniProt Q86V86)
# Description: as §1
# [27] = molecular target: PKBa (Homo sapiens, UniProt P31749)
# Description: as §1
# [28] = molecular target: PKBb (Homo sapiens, UniProt P31751)
# Description: as §1
# [29] = molecular target: RIPK2 (Homo sapiens, UniProt O43353)
# Description: as §1
# [30] = molecular target: SRPK1 (Homo sapiens, UniProt Q96SB4)
# Description: as §1
# [31] = molecular target: STK33 (Homo sapiens, UniProt Q9BYT3)
# Description: as §1
# [32] = molecular target: TAO1 (Homo sapiens, UniProt Q7L7X3)
# Description: as §1
# [33] = molecular target: TBK1 (Homo sapiens, UniProt Q9UHD2)
# Description: as §1
# [34] = molecular target: TTK (Homo sapiens, UniProt P33981)
# Description: as §1
# [35] = molecular target: YES1 (Homo sapiens, UniProt P07947)
# Description: as §1
# [36] = molecular target: p38b MAPK (Homo sapiens, UniProt Q15759)
# Description: as §1
# Sequence of GSK3b (P49841 whole entry): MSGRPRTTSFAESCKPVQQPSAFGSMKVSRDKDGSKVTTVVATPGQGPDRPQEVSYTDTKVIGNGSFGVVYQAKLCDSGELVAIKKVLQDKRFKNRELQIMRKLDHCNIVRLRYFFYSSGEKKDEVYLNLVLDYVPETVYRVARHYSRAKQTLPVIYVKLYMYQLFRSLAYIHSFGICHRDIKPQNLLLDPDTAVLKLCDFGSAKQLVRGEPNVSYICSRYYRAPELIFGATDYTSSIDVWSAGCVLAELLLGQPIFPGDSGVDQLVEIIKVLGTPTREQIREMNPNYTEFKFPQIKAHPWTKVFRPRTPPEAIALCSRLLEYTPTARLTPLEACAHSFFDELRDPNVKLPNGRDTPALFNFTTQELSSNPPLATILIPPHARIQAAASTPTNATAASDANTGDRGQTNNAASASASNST
# Sequence of TAO1 (Q7L7X3 whole entry): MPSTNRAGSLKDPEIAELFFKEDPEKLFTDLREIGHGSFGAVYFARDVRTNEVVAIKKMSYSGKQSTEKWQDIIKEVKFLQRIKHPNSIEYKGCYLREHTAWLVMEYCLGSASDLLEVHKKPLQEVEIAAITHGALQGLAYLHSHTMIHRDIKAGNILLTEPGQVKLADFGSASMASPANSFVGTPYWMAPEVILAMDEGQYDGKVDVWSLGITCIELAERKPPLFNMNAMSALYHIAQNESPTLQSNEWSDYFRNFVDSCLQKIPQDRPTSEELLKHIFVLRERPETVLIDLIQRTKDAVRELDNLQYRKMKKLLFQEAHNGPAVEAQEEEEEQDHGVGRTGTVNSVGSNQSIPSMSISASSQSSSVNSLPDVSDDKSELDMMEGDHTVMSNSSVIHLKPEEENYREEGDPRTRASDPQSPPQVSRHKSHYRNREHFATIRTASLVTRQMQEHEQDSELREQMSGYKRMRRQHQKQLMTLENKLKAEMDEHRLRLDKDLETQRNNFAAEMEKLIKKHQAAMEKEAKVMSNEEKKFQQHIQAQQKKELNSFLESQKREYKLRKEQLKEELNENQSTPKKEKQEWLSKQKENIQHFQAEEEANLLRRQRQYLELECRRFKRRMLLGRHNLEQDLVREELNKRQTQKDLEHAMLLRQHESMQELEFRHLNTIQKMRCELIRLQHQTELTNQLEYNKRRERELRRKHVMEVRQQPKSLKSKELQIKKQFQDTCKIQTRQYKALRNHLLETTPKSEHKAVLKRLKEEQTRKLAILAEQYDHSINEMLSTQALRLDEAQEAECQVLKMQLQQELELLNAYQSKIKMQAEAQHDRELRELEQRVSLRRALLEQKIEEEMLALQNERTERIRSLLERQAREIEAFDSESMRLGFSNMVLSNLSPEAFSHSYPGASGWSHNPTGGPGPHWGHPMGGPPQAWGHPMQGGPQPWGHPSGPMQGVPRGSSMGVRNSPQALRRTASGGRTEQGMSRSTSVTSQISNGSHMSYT
# Sequence of MAPKAP-K3 (Q16644 whole entry, species assumed): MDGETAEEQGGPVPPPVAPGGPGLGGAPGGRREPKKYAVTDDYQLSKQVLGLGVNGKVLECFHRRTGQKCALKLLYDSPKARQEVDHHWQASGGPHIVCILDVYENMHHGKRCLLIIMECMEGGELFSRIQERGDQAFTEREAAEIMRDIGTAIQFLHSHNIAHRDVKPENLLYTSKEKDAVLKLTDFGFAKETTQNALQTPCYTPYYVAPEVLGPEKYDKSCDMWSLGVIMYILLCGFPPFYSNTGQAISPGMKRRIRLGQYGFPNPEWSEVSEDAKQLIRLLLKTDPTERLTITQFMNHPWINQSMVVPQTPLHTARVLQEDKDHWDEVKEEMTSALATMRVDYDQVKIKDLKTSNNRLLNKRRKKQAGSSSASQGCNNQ
# Sequence of CLK2 (P49760 whole entry, species assumed): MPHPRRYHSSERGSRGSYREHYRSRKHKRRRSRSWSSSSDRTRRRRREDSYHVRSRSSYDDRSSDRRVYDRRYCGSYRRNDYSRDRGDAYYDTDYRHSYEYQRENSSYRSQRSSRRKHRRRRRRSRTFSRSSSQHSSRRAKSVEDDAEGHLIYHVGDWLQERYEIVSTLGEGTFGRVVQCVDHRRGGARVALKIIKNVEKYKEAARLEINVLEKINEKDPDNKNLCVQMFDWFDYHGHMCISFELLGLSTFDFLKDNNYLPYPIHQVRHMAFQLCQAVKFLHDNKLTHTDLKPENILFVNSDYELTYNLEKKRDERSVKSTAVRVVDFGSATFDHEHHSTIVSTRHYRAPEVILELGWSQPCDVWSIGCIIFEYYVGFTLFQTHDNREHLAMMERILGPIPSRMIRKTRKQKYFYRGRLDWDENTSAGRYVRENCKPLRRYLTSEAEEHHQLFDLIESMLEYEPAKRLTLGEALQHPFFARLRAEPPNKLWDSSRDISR
# Sequence of MAPKAP-K2 (P49137 whole entry, species assumed): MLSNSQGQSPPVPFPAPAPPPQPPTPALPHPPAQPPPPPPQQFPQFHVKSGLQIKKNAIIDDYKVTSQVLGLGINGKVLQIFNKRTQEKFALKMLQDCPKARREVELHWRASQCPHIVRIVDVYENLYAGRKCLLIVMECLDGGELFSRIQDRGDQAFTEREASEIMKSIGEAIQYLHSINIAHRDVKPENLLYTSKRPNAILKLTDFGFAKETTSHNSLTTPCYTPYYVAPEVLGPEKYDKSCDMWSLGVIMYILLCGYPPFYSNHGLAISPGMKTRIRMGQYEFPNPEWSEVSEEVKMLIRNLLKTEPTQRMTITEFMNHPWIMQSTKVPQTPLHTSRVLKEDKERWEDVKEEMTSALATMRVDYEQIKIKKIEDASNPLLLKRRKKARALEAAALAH
# Sequence of MARK2 (Q7KZI7 whole entry, species assumed): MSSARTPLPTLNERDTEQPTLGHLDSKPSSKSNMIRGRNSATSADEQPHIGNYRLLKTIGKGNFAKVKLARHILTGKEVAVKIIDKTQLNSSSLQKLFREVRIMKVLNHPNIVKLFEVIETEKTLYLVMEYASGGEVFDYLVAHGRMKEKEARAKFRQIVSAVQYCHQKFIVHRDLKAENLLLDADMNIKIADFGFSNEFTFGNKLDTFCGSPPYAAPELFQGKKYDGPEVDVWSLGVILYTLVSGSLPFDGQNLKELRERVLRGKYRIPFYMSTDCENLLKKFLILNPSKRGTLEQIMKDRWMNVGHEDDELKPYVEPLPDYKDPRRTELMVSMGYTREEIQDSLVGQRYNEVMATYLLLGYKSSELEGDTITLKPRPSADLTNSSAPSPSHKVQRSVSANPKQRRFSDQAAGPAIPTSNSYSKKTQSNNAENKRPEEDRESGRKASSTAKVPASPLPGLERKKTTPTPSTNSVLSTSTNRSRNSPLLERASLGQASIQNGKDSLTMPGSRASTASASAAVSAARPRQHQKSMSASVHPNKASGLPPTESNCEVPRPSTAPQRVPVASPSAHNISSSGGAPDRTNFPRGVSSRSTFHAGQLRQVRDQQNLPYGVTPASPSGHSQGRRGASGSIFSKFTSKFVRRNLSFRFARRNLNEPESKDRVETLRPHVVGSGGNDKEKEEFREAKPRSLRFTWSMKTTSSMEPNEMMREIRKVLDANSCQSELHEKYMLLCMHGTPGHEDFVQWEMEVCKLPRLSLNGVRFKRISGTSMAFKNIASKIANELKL
# Sequence of DAPK1 (P53355 whole entry, species assumed): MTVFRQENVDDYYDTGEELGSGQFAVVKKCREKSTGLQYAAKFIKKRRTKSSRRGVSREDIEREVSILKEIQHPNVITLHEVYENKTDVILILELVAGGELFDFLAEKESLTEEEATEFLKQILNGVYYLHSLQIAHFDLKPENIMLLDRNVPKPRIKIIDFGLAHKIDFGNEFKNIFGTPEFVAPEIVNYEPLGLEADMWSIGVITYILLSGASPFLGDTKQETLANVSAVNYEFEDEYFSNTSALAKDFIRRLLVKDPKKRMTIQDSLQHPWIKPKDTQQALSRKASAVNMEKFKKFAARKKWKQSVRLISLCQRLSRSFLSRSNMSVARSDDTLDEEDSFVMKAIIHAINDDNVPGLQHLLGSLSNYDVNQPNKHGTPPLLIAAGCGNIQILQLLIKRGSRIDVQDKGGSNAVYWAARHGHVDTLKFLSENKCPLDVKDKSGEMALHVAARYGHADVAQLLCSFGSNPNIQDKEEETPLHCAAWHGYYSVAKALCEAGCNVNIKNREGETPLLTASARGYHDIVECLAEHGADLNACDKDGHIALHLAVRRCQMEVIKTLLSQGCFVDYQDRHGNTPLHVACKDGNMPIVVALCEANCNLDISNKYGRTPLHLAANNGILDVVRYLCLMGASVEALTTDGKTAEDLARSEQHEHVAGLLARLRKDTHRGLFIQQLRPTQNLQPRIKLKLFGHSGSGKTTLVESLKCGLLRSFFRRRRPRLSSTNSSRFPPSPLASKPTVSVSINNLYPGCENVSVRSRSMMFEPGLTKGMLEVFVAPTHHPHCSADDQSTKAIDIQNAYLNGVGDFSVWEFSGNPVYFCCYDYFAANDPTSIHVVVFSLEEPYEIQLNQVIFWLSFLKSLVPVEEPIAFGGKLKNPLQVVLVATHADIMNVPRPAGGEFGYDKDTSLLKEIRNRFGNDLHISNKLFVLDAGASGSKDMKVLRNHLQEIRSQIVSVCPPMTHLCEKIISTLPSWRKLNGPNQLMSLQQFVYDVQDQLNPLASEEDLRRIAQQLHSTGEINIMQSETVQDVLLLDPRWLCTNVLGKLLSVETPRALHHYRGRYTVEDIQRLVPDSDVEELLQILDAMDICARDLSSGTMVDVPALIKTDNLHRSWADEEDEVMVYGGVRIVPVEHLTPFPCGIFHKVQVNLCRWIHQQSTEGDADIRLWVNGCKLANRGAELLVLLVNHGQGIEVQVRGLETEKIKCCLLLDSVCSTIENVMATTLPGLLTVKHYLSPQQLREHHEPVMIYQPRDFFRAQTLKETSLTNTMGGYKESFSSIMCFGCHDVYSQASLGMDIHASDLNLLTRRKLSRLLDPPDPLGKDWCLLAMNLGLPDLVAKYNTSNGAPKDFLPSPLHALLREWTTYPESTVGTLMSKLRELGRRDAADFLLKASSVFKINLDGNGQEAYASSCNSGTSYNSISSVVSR
structure (smiles),measurement,setting,value
CN(C)c1ccc2c(c1)Oc1cc(N(C)C)ccc1C21OC(=O)c2cc(C(=O)NCCCC[C@@H](NC(=O)[C@@H](CCCNC(=N)N)NC(=O)[C@@H](CCCNC(=N)N)NC(=O)[C@@H](CCCNC(=N)N)NC(=O)[C@@H](CCCNC(=N)N)NC(=O)[C@@H](CCCNC(=N)N)NC(=O)[C@@H](CCCNC(=N)N)NC(=O)CCCCCNC(=O)[C@@H](CCCNC(=N)N)NC(=O)CCCCCNC(=O)c3ccc(-c4ccnc(N)n4)s3)C(N)=O)ccc21 [ARC-669],remaining activity at 1 µM,[1],88%
same,remaining activity at 1 µM,[2],36%
same,remaining activity at 1 µM,[3],1%
same,remaining activity at 1 µM,[4],20%
same,remaining activity at 1 µM,[5],65%
same,remaining activity at 1 µM,[6],18%
same,remaining activity at 1 µM,[7],23%
same,remaining activity at 1 µM,[8],77%
same,remaining activity at 1 µM,[9],97%
same,remaining activity at 1 µM,[10],38%
same,remaining activity at 1 µM,[11],50%
same,remaining activity at 1 µM,[12],52%
same,remaining activity at 1 µM,[13],82%
same,remaining activity at 1 µM,[14],91%
same,remaining activity at 1 µM,[15],85%
same,remaining activity at 1 µM,[16],77%
same,remaining activity at 1 µM,[17],101%
same,remaining activity at 1 µM,[18],13%
same,remaining activity at 1 µM,[19],31%
same,remaining activity at 1 µM,[20],77%
same,remaining activity at 1 µM,[21],86%
same,remaining activity at 1 µM,[22],69%
same,remaining activity at 1 µM,[23],70%
same,remaining activity at 1 µM,[24],76%
same,remaining activity at 1 µM,[25],55%
same,remaining activity at 1 µM,[26],7%
same,remaining activity at 1 µM,[27],1%
same,remaining activity at 1 µM,[28],4%
same,remaining activity at 1 µM,[29],47%
same,remaining activity at 1 µM,[30],66%
same,remaining activity at 1 µM,[31],76%
same,remaining activity at 1 µM,[32],94%
same,remaining activity at 1 µM,[33],27%
same,remaining activity at 1 µM,[34],66%
same,remaining activity at 1 µM,[35],64%
same,remaining activity at 1 µM,[36],71%
